{"source": "paper PMC11257444", "about": "(bioRxiv, 2024)", "molecules": {"B1": {"name": "NLG-1 ectodomain (purified) (receptor)", "chain": "YDVRSVTTSWGMVRGEVVSPEGDDLPPVAQYLGIPYGVAPTGQYRFNMAISAAKWTHMPKDARKVSPVCIQTDMPELSETKAFKHTSAQRFDFNHRLLPHLKKQSEDCLYMNIYVPERLEISRDNYLPVMVIVHGEEYGWGTGNAFNGTTLAAYGHIIVVTLNYRLGVFGFLGRCESSSCSGNSGISDLVSALTMLNVILPSFGGDSKSVTLAGWGSGASLVSLLMASPLTQPGRRLFRRAILLDGSALSPWAISQNPQQYFMQLAEELACAPKNRTSSFNDNVDTIVRCMQVHSSENITKAVLKIDVPTFLSGFAPIVDGQLIPNKPQVSFSTQYGSLFREIDLLVGISSNPSHHMISNEDLKVGISKEKRMRIFRSLVRNLYDFHREEILASIINEYTDWENPRDHPKSIRNGVLNALSDVLYTAPLIETLRSHSADEVRKEANTFMFAFAHETRSWSQEQPNSGIRGSLSGDIVPYIFGYPLAQGDSEERLYSGFNTDDKGISKVMMHYVSNFVKSGDPSKPNPMSKNFPMGDVFHSTAWPQFDQPNREAYLEITDRPRVKNYYRNAQVGFWNNFIPQLHKNGKETEPVGEEHHLLSDHFRKDSYFGKTRHFSSYANLPFPPPPMPPSPPPELTTKPKPSESPTTLQTTTESEKAAAGSFTGKAL"}, "B2": {"name": "INS-6 (purified, SPR) (ligand)", "chain": "VPAPGETRACGRKLISLVMAVCGDLCNPQEGKDIATECCGNQCSDDYIRSACCP"}}, "test_in_all_cases": "SPR", "key": {"[1]": {"molecular_target": "ZIG-4 (purified, SPR) (C. elegans) (UniProt G5ECB1)"}, "[2]": {"molecular_target": "ZIG-5 (purified, SPR) (C. elegans) (UniProt Q9XXD7)"}, "[3]": {"molecular_target": "HIR-1 ectodomain (purified) (C. elegans) (UniProt O76385)"}, "[4]": {"molecular_target": "NRX-1 LNS6 domain (purified) (C. elegans)"}, "[5]": {"molecular_target": "T1, ZIG-4 (purified, SPR) (C. elegans, UniProt G5ECB1 17-253)", "T1 sequence": "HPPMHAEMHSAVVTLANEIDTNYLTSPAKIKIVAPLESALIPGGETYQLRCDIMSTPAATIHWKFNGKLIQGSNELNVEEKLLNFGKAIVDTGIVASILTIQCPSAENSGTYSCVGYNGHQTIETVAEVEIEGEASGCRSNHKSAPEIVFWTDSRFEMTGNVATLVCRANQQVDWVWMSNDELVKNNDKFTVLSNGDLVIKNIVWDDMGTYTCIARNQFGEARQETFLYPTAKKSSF"}, "[6]": {"molecular_target": "T2, ZIG-5 (purified, SPR) (C. elegans, UniProt Q9XXD7 26-260)", "T2 sequence": "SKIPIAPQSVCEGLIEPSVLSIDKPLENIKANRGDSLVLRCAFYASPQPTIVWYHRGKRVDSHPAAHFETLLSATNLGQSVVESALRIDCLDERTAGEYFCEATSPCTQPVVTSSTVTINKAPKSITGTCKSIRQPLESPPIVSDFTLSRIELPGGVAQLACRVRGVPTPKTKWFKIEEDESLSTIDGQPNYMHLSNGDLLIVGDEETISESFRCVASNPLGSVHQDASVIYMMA"}}}
{"molecule": "INS-1 (purified, SPR) (ligand)", "values": [{"measurement": "Kd", "setting": "[1]", "value": "> 1000", "unit": "nM"}, {"measurement": "Kd", "setting": "[2]", "value": 3, "unit": "nM"}]}
{"molecule": "B0222.11 (purified) (from UniProt Q4PIU5) (ligand)", "values": [{"measurement": "Kd", "setting": "[3]", "value": 0.5, "unit": "nM"}]}
{"molecule": "B1", "values": [{"measurement": "Kd", "setting": "[4]", "value": 48, "unit": "µM"}]}
{"molecule": "B2", "values": [{"measurement": "Kd", "setting": "[5]", "value": 0.056, "unit": "nM"}, {"measurement": "Kd", "setting": "[6]", "value": "> 1000", "unit": "nM"}]}
